T1: ASR1 (Abscisic, Stress, Ripening 1) (Solanum lycopersicum (tomato), UniProt Q08655 1-115)
T1 sequence: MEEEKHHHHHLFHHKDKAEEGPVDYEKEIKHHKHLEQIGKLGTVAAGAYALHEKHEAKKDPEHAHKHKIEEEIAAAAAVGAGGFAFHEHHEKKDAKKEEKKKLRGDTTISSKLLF

B1: Tomato ASR1 (Abscisic, Stress, Ripening protein 1), untagged recombinant protein (natural protein, UniProt Q08655 1-115, looked up)
chain: MEEEKHHHHHLFHHKDKAEEGPVDYEKEIKHHKHLEQIGKLGTVAAGAYALHEKHEAKKDPEHAHKHKIEEEIAAAAAVGAGGFAFHEHHEKKDAKKEEKKKLRGDTTISSKLLF
notes: ASR1 of tomato; 'peaks corresponding to the expected full-length protein were pooled'; 12.7 kDa by SLS; The cloning of ASR1 alone is not described; also called untagged ASR1; ASR1 recombinant protein
B2: FITC-oligoC (dsDNA)
DNA 1: TATTGGGCTTGG
DNA 2: CCAAGCCCAATA
B3: FITC-oligoS (dsDNA)
DNA 1: AGTTCTGGTTGG
DNA 2: CCAACCAGAACT

Experiments:
[1] = target: the molecule itself; experiment: SDS-PAGE; purified ASR1 at high protein concentrations on SDS-PAGE
[2] = target: T1, ASR1 (Abscisic, Stress, Ripening 1); experiment: fluorescence anisotropy; 100 uM ZnCl2; Buffer H: 100 mM NaCl, 20 mM HEPES pH 7.4, with 100 uM ZnCl2; 250 nM FITC-dsDNA; anisotropy temperature not stated (CD at 25 C); conditions: protein: recombinant; tags: untagged in the main text (original His6 removed); label: 5' FITC on one strand; blunt

Row | Binder | binding result [1] | Kd [2]
1 | B1 | binds | –
2 | B2 | – | 216 ± 10 nM
3 | B3 | – | 1080 ± 46 nM
